Results taken from patent publication US20140234868A1, “USE FOR GLYCOLIPOPROTEIN GINTONIN, ISOLATED AND IDENTIFIED FROM GINSENG, AS A NATURAL MEDICAL-PLANT DERIVED LIGAND” (KONKUK UNIVERSITY INDUSTRIAL COOPERATION CORP., priority 2011, published 2014).

How the values were obtained:
Test in all cases: cell-based or functional assay
LPA2 receptor = LPA2 receptor (Homo sapiens, UniProt Q9HBW0)
[1] = molecular target: LPA1 receptor endogenous to Xenopus oocytes (Xenopus laevis)
LPA5 receptor = LPA5 receptor (Homo sapiens, UniProt Q9H1C0)
Chain of LPA5 receptor (Q9H1C0 whole entry): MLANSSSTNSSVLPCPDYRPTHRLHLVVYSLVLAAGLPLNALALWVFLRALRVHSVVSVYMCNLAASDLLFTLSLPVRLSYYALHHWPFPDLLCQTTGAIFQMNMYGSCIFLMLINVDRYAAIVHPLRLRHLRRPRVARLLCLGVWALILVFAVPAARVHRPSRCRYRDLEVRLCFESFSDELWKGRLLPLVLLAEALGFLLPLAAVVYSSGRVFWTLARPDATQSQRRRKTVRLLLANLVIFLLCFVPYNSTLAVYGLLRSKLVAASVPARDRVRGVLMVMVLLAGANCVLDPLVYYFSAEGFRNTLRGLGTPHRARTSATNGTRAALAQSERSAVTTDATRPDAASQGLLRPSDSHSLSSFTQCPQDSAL

[2] = molecular target: T1, LPA3 receptor (wild-type) (human) (UniProt Q9UBY5)
T1 sequence (looked up): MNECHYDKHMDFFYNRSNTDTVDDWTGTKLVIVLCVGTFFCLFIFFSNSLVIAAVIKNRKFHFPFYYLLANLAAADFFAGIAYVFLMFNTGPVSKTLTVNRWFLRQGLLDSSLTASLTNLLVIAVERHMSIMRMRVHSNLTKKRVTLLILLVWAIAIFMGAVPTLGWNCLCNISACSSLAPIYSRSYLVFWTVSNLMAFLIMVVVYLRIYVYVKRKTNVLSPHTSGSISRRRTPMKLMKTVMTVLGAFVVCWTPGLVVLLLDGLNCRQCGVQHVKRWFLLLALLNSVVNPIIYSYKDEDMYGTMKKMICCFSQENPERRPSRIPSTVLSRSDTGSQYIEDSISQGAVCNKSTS

LPA1 receptor = LPA1 receptor (Homo sapiens, UniProt Q92633)
Chain of LPA1 receptor (Q92633 whole entry): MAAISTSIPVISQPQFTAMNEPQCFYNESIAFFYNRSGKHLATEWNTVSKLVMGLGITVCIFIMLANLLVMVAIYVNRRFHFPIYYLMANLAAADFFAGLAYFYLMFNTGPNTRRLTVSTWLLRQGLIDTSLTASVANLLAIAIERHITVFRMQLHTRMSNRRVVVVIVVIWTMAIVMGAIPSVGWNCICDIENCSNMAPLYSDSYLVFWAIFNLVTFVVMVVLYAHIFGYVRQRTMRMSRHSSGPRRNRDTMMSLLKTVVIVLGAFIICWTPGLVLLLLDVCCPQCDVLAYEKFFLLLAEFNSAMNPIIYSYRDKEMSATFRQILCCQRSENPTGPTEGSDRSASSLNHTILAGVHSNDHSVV

LPA4 receptor = LPA4 receptor (Homo sapiens, UniProt Q99677)
Chain of LPA4 receptor (Q99677 whole entry): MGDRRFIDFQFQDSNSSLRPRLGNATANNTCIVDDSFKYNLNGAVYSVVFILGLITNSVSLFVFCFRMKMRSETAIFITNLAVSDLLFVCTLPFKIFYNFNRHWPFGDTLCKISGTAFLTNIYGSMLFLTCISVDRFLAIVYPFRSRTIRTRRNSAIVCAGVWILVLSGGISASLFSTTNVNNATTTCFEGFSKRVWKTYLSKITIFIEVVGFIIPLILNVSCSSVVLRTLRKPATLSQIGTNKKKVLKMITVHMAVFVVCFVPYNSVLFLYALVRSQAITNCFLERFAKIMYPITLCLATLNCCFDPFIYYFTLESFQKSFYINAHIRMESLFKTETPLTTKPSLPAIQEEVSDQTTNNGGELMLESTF

Chain of LPA2 receptor (Q9HBW0 whole entry): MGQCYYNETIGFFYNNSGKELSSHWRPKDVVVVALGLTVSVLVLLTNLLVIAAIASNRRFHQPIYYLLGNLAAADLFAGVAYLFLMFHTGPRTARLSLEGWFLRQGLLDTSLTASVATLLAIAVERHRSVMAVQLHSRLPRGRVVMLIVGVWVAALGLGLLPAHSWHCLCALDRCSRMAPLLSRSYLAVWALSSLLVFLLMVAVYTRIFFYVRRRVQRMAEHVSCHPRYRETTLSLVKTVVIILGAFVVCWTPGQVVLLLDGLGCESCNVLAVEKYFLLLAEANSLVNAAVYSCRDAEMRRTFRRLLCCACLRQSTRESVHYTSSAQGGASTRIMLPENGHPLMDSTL

B1: glycolipoprotein gintonin isolated from ginseng (ligand)
chain 1: MGLTGKLICQTGIKSDGDVFHELFGTRPHHVPNITPANIQGCDLHEGEFGKVGSVVIWNYSIDGNAMIAKEEIVAIDEEDKSVTFKVVEGHLFEEFKSIVFSVHVDTKGEDNLVTWSIDYEKLNESVKDPTSYLDFLLSVTRDIEAHHLPK
chain 2: RSDYPWAMFALRLQWPAGFCEVNNACDTKSLLNTFTIHGLYPYNAKGTPALYCDGTAFDVNSVSDFLAEMHLAWPSHETNTEDIQFWEHEWKKHGRCSEALLKQTDYFRTALAFRKAFDIVGLLNQEGIYPNNDLYRPKMIKEAIKKHLNAVPEIDFTKNENSEYVLTDINVCVNQQATRFVDCPTDDATDDYRLKFVRLPSKMKFADPRTNSII
modifications: three N-glycosylation sites (positions not numbered in the text); bound sugars and lipids
EC50 of LPA receptor-mediated intracellular calcium increase in B103 cells (LPA2 receptor): 0.004 nM | increase of intracellular calcium level in receptor-expressing B103 cells, gintonin 1 µg/ml (Fura-2AM) (LPA2 receptor): 208 nM | ED50 of gintonin-induced NMDA receptor-mediated inward currents in NMDA receptor-expressing Xenopus oocytes [1]: 0.49 µg/mL | ED50 of gintonin-induced activation of BKCa K+ channels expressed in Xenopus oocytes [1]: 0.71 µg/mL | EC50 of LPA receptor-mediated intracellular calcium increase in B103 cells (LPA5 receptor): 0.046 nM | increase of intracellular calcium level in receptor-expressing B103 cells, gintonin 1 µg/ml (Fura-2AM) (LPA5 receptor): 298 nM | EC50 of LPA receptor-mediated intracellular calcium increase in B103 cells [2]: 0.12 nM | increase of intracellular calcium level in receptor-expressing B103 cells, gintonin 1 µg/ml (Fura-2AM) [2]: 206 nM | EC50 of LPA receptor-mediated intracellular calcium increase in B103 cells (LPA1 receptor): 0.1 nM | increase of intracellular calcium level in receptor-expressing B103 cells, gintonin 1 µg/ml (Fura-2AM) (LPA1 receptor): 186 nM | increase of intracellular calcium level in receptor-expressing B103 cells upon treatment with gintonin (Fura-2AM) (LPA4 receptor): 61.6 nM
